As a reminder, the IC50 is the midpoint of a concentration-inhibition curve.

1 molecule from patent US20020160955A1 (published 2002) can be followed below.

Experiment in all cases: competitive phage ELISA
(In general: An ELISA detects its analyte on a solid surface through an enzyme-linked reagent.)

Assay [1] addresses T1, IGF-I S1G (G1S-A70V background) displayed on phage (human; bacteriophage M13, UniProt P69168 267-424).
T1 construct: range 249-406; monovalent M13 phage display
The method, then:
(§1) Phage particles were harvested and resuspended in PBS buffer as described in Lowman, H. B., “Phage Display of Peptide Libraries on Protein Scaffolds,” in Cabilly, S. (ed.), Combinatorial Peptide Library Protocols (Humana Press Inc.: Totowa, N.J., 1998), pp. 249-264. Then phage concentrations were normalized to yield a maximal ELISA signal of 0.2-0.4 for each mutant (Lowman, in Cabilly, S. (ed.), supra). Threefold serial dilutions of soluble competitor were prepared on non-absorbent microtiter plates (Nunc, F, 96 wells) with binding buffer (0.5% TWEEN™ 20/PBS) containing phage at the previously-determined concentrations. […] After blocking, the plates containing immobilized target were washed with 0.05% TWEEN™/PBS buffer and subsequently incubated with 80 μl/well of the premixed phage-competitor solutions for 1 hour at room temperature. After washing, bound phage was detected with 80 μl/well of a solution containing a primary rabbit anti-phage polyclonal antibody and a secondary goat anti-rabbit monoclonal antibody-horseradish peroxidase conjugate in 0.5% TWEEN 20™/PBS. o-Phenylenediamine (Sigma) and tetramethylbenzidine (Kirkegaard and Perry) were used as chromogenic substrates, resulting in product detection at 492 and 450 nm, respectively. IC₅₀ values were determined by fitting the binding data to a generic saturation curve (Lowman, in Cabilly, S. (ed.), supra). […] Numbers in Table I represent mean +standard deviation of individually assessed IC₅₀ values.
(§2) At least two different clones of every mutant were tested.

The target in assay [2] is T2, IGF-I D53A (G1S-A70V background) displayed on phage (human; bacteriophage M13).
T2 construct: monovalent M13 phage display
T2 chain: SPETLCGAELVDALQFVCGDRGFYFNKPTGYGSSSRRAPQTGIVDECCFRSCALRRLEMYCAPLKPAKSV
The method, then: as §1, §2

The target of assay [3] is T3, IGF-I S33A (G1S-A70V background) displayed on phage (human; bacteriophage M13).
T3 construct: monovalent M13 phage display; not shown: M13 gene III fragment (residues 249-406, display partner) and the junction to it
T3 chain: T2 chain with S33A, A53D
The method, then: as §1, §2

Assay [4] has as its target T4, IGF-I G19A (G1S-A70V background) displayed on phage (human; bacteriophage M13).
T4 construct: monovalent M13 phage display
T4 chain: T2 chain with G19A, A53D
The method, then: as §1, §2

Assay [5] addresses T5, IGF-I V44A (G1S-A70V background) displayed on phage (human; bacteriophage M13).
T5 construct: monovalent M13 phage display
T5 chain: T2 chain with V44A, A53D
The method, then: as §1, §2

The target of assay [6] is T6, IGF-I P63A (G1S-A70V background) displayed on phage (human; bacteriophage M13).
T6 construct: monovalent M13 phage display; not shown: M13 gene III protein fragment (residues 249-406), the phage display carrier, and its junction to IGF-I
T6 chain: T2 chain with A53D, P63A
The method, then:
as §1, §2

In assay [7] the target is T7, IGF-I R21A (G1S-A70V background) displayed on phage (human; bacteriophage M13, not fully specified; Displayed monovalently on M13 phage as a C-terminal fusion to the gene III fragment, which is left out of the letters.).
T7 construct: monovalent M13 phage display; not shown: Display carrier: M13 gene III fragment (residues 249-406) and its junction
T7 chain: T2 chain with R21A, A53D
The method, then: as §1, §2

The target in assay [8] is T8, IGF-I R56A (G1S-A70V background) displayed on phage (human; bacteriophage M13).
T8 construct: monovalent M13 phage display
T8 chain: T2 chain with A53D, R56A
The method, then: as §1, §2

The target of assay [9] is T9, IGF-I T29A (G1S-A70V background) displayed on phage (human; bacteriophage M13).
T9 construct: monovalent M13 phage display; not shown: M13 gene III fragment (residues 249-406, display partner) and the junction to it
T9 chain: T2 chain with T29A, A53D
The method, then: as §1, §2

Assay [10] addresses T10, IGF-I R37A (G1S-A70V background) displayed on phage (human; bacteriophage M13).
T10 construct: monovalent M13 phage display
T10 chain: T2 chain with R37A, A53D
The method, then:
as §1, §2

Assay [11] addresses T11, IGF-I G22A (G1S-A70V background) displayed on phage (human; bacteriophage M13, not fully specified; Displayed monovalently on M13 phage as a C-terminal fusion to the gene III fragment, which is left out of the letters.).
T11 construct: monovalent M13 phage display; not shown: Display carrier: M13 gene III fragment (residues 249-406) and its junction
T11 chain: T2 chain with G22A, A53D
The method, then: as §1, §2

For assay [12], the target named is T12, IGF-I Q15A (G1S-A70V background) displayed on phage (human; bacteriophage M13).
T12 construct: monovalent M13 phage display
T12 chain: T2 chain with Q15A, A53D
The method, then:
as §1, §2

For assay [13], the target named is T13, IGF-I R55A (G1S-A70V background) displayed on phage (human; bacteriophage M13).
T13 construct: monovalent M13 phage display
T13 chain: T2 chain with A53D, R55A
The method, then:
as §1, §2

The target in assay [14] is T14, IGF-I G30A (G1S-A70V background) displayed on phage (human; bacteriophage M13).
T14 construct: monovalent M13 phage display; not shown: M13 gene III fragment (residues 249-406, display partner) and the junction to it
T14 chain: T2 chain with G30A, A53D
The method, then:
as §1, §2

Assay [15] deals with T15, IGF-I I43A (G1S-A70V background) displayed on phage (human; bacteriophage M13).
T15 construct: monovalent M13 phage display
T15 chain: T2 chain with I43A, A53D
The method, then: as §1, §2

Positions count from the first letter of the chain named.

B1: human IGFBP-1 (other, UniProt P08833 26-259, looked up)
chain: APWQCAPCSAEKLALCPPVSASCSEVTRSAGCGCCPMCALPLGAACGVATARCARGLSCRALPGEQQPLHALTRGQGACVQESDASAPHAAEAGSPESPESTEITEEELLDNFHLMAPSEEDHSILWDAISTYDGSKALHVTNIKKWKEPCRIELYRVVESLAKAQETSGEEISKFYLPNCNKNGFYHSRQCETSMDGEAGLCWCVYPWNGKRIPGSPEIRGDPNCQIYFNVQN
notes: secreted recombinant protein purified from conditioned medium
As for B1, the IC50 in assay [1] is 11.2 nM; in assay [2], 15.3 nM; in [3], 9.1 nM; in [4] it was 11 nM; in assay [5], 18.8 nM; in assay [6], above 1000 nM. Moreover, the IC50 amounted to 7.1 nM in assay [7]; 13.1 nM in assay [8]; 7.3 nM in [9]; 12.3 nM in assay [10]; 15.9 nM in assay [11]; 13.9 nM in [12]. For the same molecule, the half-inhibitory concentration (IC50) in assay [13] stood at 9 nM; in assay [14], 7.1 nM; in [15], 31.3 nM.
